Positions count from the first letter of the chain named. Names may count otherwise.
B1: BAG6_UBL (UBL domain of BAG6, residues 17-101) (domain or fragment, UniProt P46379 17-101, looked up)
chain: LEVLVKTLDSQTRTFIVGAQMNVKEFKEHIAASVSIPSEKQRLIYQGRVLQDDKKLQEYNVGGKVIHLVERAPPQTHLPSGASSG
notes: BAG6 (BCL2-associated athanogene 6), UBL domain, residues 17-101; The general purification protocol describes TEV cleavage; also called BAG6 UBL domain; source: E. coli BL21 (DE3), purified
B2: UBL4A_UBL (UBL domain of UBL4A, residues 1-74) (domain or fragment, UniProt P11441 1-74, looked up)
chain: MQLTVKALQGRECSLQVPEDELVSTLKQLVSEKLNVPVRQQRLLFKGKALADGKRLSDYSIGPNSKLNLVVKPL
notes: UBL4A (ubiquitin-like protein 4A), UBL domain, residues 1-74; source: E. coli Rosetta, purified
B3: RNF126_NZF (RNF126 N-terminal zinc finger domain, residues 1-40) (domain or fragment, human, UniProt Q9BV68 1-40, looked up)
chain: MAEASPHPGRYFCHCCSVEIVPRLPDYICPRCESGFIEEL
notes: RNF126, human, residues 1-40 (N-terminal zinc finger); 15N- or 15N,13C-labelled where it was the observed protein in NMR; Cultures were supplemented with 10 uM ZnCl2; also called RNF126 1-40; not shown: thioredoxin A, N-terminal, cleaved; His6, N-terminal, cleaved
B4: RNF126_NZF F36A mutant (domain or fragment, human, UniProt Q9BV68 1-40, looked up)
chain: B3 chain with F36A
notes: RNF126, human, residues 1-40, with F36A; Made by PCR mutagenesis on pET28-GFP-RNF126 (1-40); in the native PAGE the mutants were GFP tagged; also called Phe36/Ala; source: E. coli BL21 (DE3), purified
B5: RNF126_NZF H14A mutant (domain or fragment, human, UniProt Q9BV68 1-40, looked up)
chain: B3 chain with H14A
notes: RNF126, human, residues 1-40, with H14A; Made by PCR mutagenesis on pET28-GFP-RNF126 (1-40); in the native PAGE the mutants were GFP tagged; also called His14/Ala; source: E. coli BL21 (DE3), purified

What was measured:
[1] = target: B3; assay: NMR titration; unlabelled protein titrated into 15N-labelled protein, 1H-15N HSQC chemical shift perturbation; 25 °C; 10 mM potassium phosphate pH 6.0, 100 mM NaCl, 250 μM TCEP; for RNF126_NZF into UBL4A_UBL fitted with DynaFit to a 1:1 model; conditions: both partners purified
[2] = target: T1, RNF126 N-terminal region (residues 1-100) (human, UniProt Q9BV68 1-100); assay: as above; conditions: both partners purified
T1 construct: RNF126, human, residues 1-100; also called RNF126 1-100; RNF126_NT (1-100); not shown: thioredoxin A, N-terminal, cleaved; His6, N-terminal, cleaved

[3] = target: T2, SGTA_NT (N-terminal SGTA, residues 1-86) (human, UniProt O43765 1-86); assay: as above; conditions: both partners purified
T2 construct: SGTA (small glutamine-rich tetratricopeptide repeat-containing protein alpha), human, residues 1-86; Only the 1-86 construct is described in the methods; not shown: thioredoxin A, N-terminal, cleaved; His6, N-terminal, cleaved
T2 sequence (O43765 1-86): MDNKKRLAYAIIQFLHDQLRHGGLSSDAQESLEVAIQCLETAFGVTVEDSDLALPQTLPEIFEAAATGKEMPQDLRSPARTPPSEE

[4] = target: B1; assay: ITC; 500 μM RNF126_NZF (wild-type or mutant) injected into 50 μM BAG6_UBL in the cell; 25 °C; 10 mM potassium phosphate pH 6.0, 100 mM NaCl, 250 μM TCEP; conditions: both partners purified
[5] = target: UBL4A_UBL (UBL domain of UBL4A, residues 1-74) (UniProt P11441); assay: NMR titration; unlabelled protein titrated into 15N-labelled protein, 1H-15N HSQC chemical shift perturbation; 25 °C; 10 mM potassium phosphate pH 6.0, 100 mM NaCl, 250 μM TCEP; for RNF126_NZF into UBL4A_UBL fitted with DynaFit to a 1:1 model

Row | Binder | binding result [2] | Kd [4] [µM] | other results
1 | B1 | binds |  | stoichiometry N [1]: ~1 molar ratio; binding result [3]: binds
2 | B2 | binds |  | 
3 | B3 |  | 0.4 ± 0.05 | dH [4]: -4.52 ± 0.04 kcal/mol; stoichiometry N [4]: 1; Kd [5]: 16.6 µM
4 | B4 |  | 5 ± 0.3 | 
5 | B5 |  | > 50 | 

From publication PMC4872217, “Structural and functional insights into the E3 ligase, RNF126” (Scientific Reports, 2016)
